# Measured values taken from FireProtDB (doi:10.1021/bi011146t).
# Conditions: Alicyclobacillus acidocaldarius subsp. acidocaldarius, pH 7.5, 20 °C, CD, sodium phosphate 20 mM, reversible: no
substance,measurement,setting,value
wild type (from UniProt Q7SIG1),denaturant m value,GdnHCl,2.08 kcal/mol/M
same,denaturant midpoint (higher = more stable),GdnHCl,1.9 M
same,unfolding free energy,GdnHCl,4.3 kcal/mol
same,denaturant m value,Urea,2.63 kcal/mol/M
same,denaturant midpoint (higher = more stable),Urea,5.9 M
same,unfolding free energy,Urea,15.1 kcal/mol
